Measurements as given in article PMC8094116.
Each block holds one substance with its values, some of them ahead of it.

Tests used:
[1] = biological target: Microtubules polymerised from tubulin protein (T240; Cytoskeleton), paclitaxel-stabilised (UniProt P02550); assay: co-sedimentation
[2] = biological target: mEGFP–Daple FL (full-length mouse Daple, mEGFP(A206K)-Daple-Flag) (mouse) (UniProt Q6VGS5); assay: single-molecule photobleaching steps and spot intensities
[3] = biological target: mEGFP–Daple FL ΔCT (mouse Daple lacking the CT domain) (mouse); assay: as above
[4] = biological target: mEGFP–Daple NT (N-terminal domain of mouse Daple) (mouse); assay: as above

- Kd [1]: 1.46 µM
Substance: mEGFP–Daple FL (full-length mouse Daple, mEGFP(A206K)-Daple-Flag) (from UniProt Q6VGS5 1-2009) (natural protein)

- stoichiometry N [2]: 2
Substance: mEGFP–Daple FL (full-length mouse Daple, mEGFP(A206K)-Daple-Flag), Q6VGS5 1-2009

- stoichiometry N [3]: 2
Substance: mEGFP–Daple FL ΔCT (mouse Daple lacking the CT domain) (domain or fragment)

- stoichiometry N [4]: 2
Substance: mEGFP–Daple NT (N-terminal domain of mouse Daple) (domain or fragment)
